Measured values: patent publication US20150004189A1 (published 2015)

How the values were obtained:
[1] = target: T1, HLA-DQ molecule DQB1*0402 (human, UniProt P01909 24-216; P01920 33-230, limits assumed); assay: inhibition of radiolabeled peptide binding to purified HLA-DQ
T1 MHC II alpha: not shown
T1 MHC II beta: not shown

[2] = target: HLA-DQ molecule DQB1*0202 (human); assay: as above
[3] = target: T2, HLA-DQ molecule DQB1*0302 (human, UniProt P01909 24-216; P01920 33-230, limits assumed); assay: as above
T2 MHC II alpha: not shown
T2 MHC II beta: not shown

[4] = target: HLA-DQ molecule DQB1*0602 (human); assay: as above
[5] = target: HLA-DQ molecule DQB1*0301 (human, UniProt P01909 24-216; P01920 33-230, limits assumed); assay: as above
[6] = target: HLA-DQ molecule DQB1*0503 (human); assay: as above
[7] = target: HLA DQ molecule DQB1*0502 (human); assay: inhibition of radiolabeled peptide binding to purified HLA DQ
[8] = target: HLA DQ molecule DQB1*0602 (human); assay: as above
[9] = target: HLA-DQ molecule DQB1*0602 (human); assay: competition: inhibition of radiolabeled peptide binding to purified HLA
[10] = target: HLA-DQ molecule DQB1*0202 (human); assay: as above
[11] = target: HLA DQ molecule DQB1*0503 (human); assay: inhibition of radiolabeled peptide binding to purified HLA DQ
[12] = target: HLA DQ molecule DQB1*0202 (human); assay: as above
[13] = target: T3, HLA-DP DPB1*0401 (human); assay: inhibition of radiolabeled peptide binding to purified HLA-DP
T3 chain 1: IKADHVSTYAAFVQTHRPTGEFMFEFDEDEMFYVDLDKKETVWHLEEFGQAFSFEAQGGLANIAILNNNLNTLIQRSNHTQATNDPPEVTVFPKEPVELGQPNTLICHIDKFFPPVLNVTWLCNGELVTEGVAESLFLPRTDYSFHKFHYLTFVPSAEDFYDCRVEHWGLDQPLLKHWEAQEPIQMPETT
T3 chain 2: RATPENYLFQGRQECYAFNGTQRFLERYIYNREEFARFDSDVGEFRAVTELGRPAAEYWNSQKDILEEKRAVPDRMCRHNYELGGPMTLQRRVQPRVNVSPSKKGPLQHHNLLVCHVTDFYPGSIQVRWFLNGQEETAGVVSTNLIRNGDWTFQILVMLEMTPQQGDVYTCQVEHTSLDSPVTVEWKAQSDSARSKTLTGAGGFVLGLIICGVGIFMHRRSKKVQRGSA

[14] = target: T4, HLA-DP molecule DPB1*0401 (human); assay: as above
T4 chain 1: T3 chain 1
T4 chain 2: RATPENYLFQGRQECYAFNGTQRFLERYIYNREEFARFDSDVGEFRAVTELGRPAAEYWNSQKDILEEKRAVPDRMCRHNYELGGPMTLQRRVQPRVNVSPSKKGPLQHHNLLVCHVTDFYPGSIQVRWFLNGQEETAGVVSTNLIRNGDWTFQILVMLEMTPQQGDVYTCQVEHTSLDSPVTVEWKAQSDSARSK

[15] = target: T5, HLA-DP molecule DPB1*0101 (human, UniProt P20036 29-222; P04440 30-225, limits assumed); assay: as above
T5 MHC II alpha: not shown
T5 MHC II beta: not shown

[16] = target: T6, HLA-DP molecule DPB1*0201 (human, UniProt P20036 29-222; P04440 30-225, limits assumed); assay: as above
T6 MHC II alpha: not shown
T6 MHC II beta: not shown

[17] = target: HLA-DP molecule DPB1*2001 (human); assay: as above
[18] = target: T7, HLA-DP molecule DPB1*0501 (human, UniProt P20036 29-222; P04440 30-225, limits assumed); assay: as above
T7 MHC II alpha: not shown
T7 MHC II beta: not shown

[19] = target: HLA-DP molecule DPB1*1401 (human); assay: as above
[20] = target: HLA-DQ molecule DQB1*0503 (human); assay: competition: inhibition of radiolabeled peptide binding to purified HLA
[21] = target: HLA-DQ molecule DQB1*0502 (human); assay: as above
[22] = target: T8, HLA-DQ molecule DQB1*0501 (human, limits assumed); assay: inhibition of radiolabeled peptide binding to purified HLA-DQ
T8 MHC II alpha: not shown
T8 MHC II beta: not shown

[23] = target: T9, HLA DQ molecule DQB1*0302 (human, UniProt P01909 24-216; P01920 33-230, limits assumed); assay: inhibition of radiolabeled peptide binding to purified HLA class II
T9 MHC II alpha: not shown
T9 MHC II beta: not shown

[24] = target: T10, HLA DQ molecule DQB1*0501 (human, limits assumed); assay: as above
T10 MHC II alpha: not shown
T10 MHC II beta: not shown

[25] = target: HLA DQ molecule DQB1*0502 (human); assay: as above
[26] = target: HLA DQ molecule DQB1*0602 (human); assay: as above
[27] = target: HLA DQ molecule DQB1*0503 (human); assay: as above
[28] = target: HLA DQ molecule DQB1*0202 (human); assay: as above
[29] = target: HLA-DQ molecule DQB1*0602 (human); assay: inhibition of radiolabeled peptide binding to purified HLA
[30] = target: HLA-DQ molecule DQB1*0503 (human); assay: as above
[31] = target: HLA-DQ molecule DQB1*0202 (human); assay: as above
[32] = target: HLA-DQ molecule DQB1*0502 (human); assay: as above
[33] = target: T11, HLA-DQ molecule DQB1*0501 (human, limits assumed); assay: as above
T11 MHC II alpha: not shown
T11 MHC II beta: not shown

Binder: NLNIKLNMPLYIAGN [Cha o 1 (96-110) peptide NLNIKLNMPLYIAGN]
- IC50 [1]: 30.4 µM
- IC50 [2]: 39.7 µM
- IC50 [3]: 50 µM
- IC50 [4]: 2860 nM
- IC50 [5]: 31.9 µM
- IC50 [6]: 10.7 µM

Binder: DINVGFKAAVAAAAG [Poa p 5 peptide, position 56 (Peptide ID 3324.1571)]
- IC50 [7]: 5.41 µM
- IC50 [8]: 34 nM

Binder: AQGKAFYEAVAKAHQ [Alt a 7 peptide, position 190, Peptide ID 3324.0080]
- IC50 [9]: 2360 nM
- IC50 [10]: 50 µM

Binder: ATPEAKFDSFVAAFT [Poa p 5 peptide, position 121 (Peptide ID 3324.1570)]
- IC50 [7]: 8 µM
- IC50 [11]: 910 nM

Binder: QKLMEDINVGFKAAV [Poa p 5 peptide, position 51 (Peptide ID 3324.1580)]
- IC50 [11]: 5210 nM
- IC50 [8]: 1290 nM
- IC50 [12]: 8.07 µM

Binder: EGTVDFIFGEARSLY [Sal k 1 1 peptide 191-205, EGTVDFIFGEARSLY (Peptide ID 3324.1590)]
- IC50 [13]: 2040 nM

Binder: FTSLEYIEAAKWLLP [Sal k 1 1 peptide, position 321 (Peptide ID 3324.1589)]
- IC50 [8]: 1300 nM

Binder: NDKFTVFEGAFNKAI [Pha a 5 peptide, position 181, NDKFTVFEGAFNKAI (Peptide ID 3324.1442)]
- IC50 [14]: 177 nM
- IC50 [15]: 613 nM
- IC50 [16]: 28 nM
- IC50 [17]: 97 nM

Binder: PAAAYATATPAAATA [Lol p 5 1 peptide, position 306, PAAAYATATPAAATA (Peptide ID 3324.1184)]
- IC50 [18]: 12.4 µM
- IC50 [19]: 299 nM
- IC50 [16]: 3490 nM
- IC50 [17]: 611 nM

Binder: INELIASGSEKLASV [Alt a 5 peptide, position 51, Peptide ID 3324.0065]
- IC50 [20]: 7.54 µM
- IC50 [21]: 25.9 µM
- IC50 [9]: 302 nM

Binder: EGTVDFIFGEARSLY [Sal k 1 1 peptide, position 191 (Peptide ID 3324.1590)]
- IC50 [7]: 6.85 µM
- IC50 [11]: 2360 nM
- IC50 [12]: 3.12 µM

Binder: ERSLWIIFSKNLNIK [Cha o 1 (86-100) peptide ERSLWIIFSKNLNIK]
- IC50 [4]: 432 nM
- IC50 [6]: 0.301 µM
- IC50 [22]: 729 nM

Binder: PAVKYIEPDMIVNAT [Pen ch 13 (101-115) peptide PAVKYIEPDMIVNAT, Peptide ID 3324.1304]
- IC50 [23]: 822 nM
- IC50 [24]: 119 nM
- IC50 [25]: 1960 nM
- IC50 [26]: 549 nM
- IC50 [27]: 1790 nM

Binder: FKAAVAAAAGAPPAD [Poa p 5 peptide, position 61 (Peptide ID 3324.1575)]
- IC50 [7]: 6.78 µM
- IC50 [11]: 1380 nM
- IC50 [8]: 793 nM
- IC50 [12]: 25.7 µM

Binder: DSYKFIPTLVAAVKQ [Lol p 5 1 peptide, position 236, DSYKFIPTLVAAVKQ (Peptide ID 3324.1165)]
- IC50 [18]: 0.0069 µM
- IC50 [15]: 79 nM
- IC50 [16]: 69 nM
- IC50 [17]: 12 nM

Binder: QVAQYKALPVVLENA [Fel d 1 1 (46-60) peptide QVAQYKALPVVLENA, Peptide ID 3324.1051]
- IC50 [28]: 21.4 µM
- IC50 [25]: 552 nM
- IC50 [26]: 1600 nM
- IC50 [27]: 610 nM

Binder: GGRLAFQEFMIVPCE [Alt a 6 peptide, position 161, Peptide ID 3324.0073]
- IC50 [20]: 4.94 µM
- IC50 [9]: 1290 nM
- IC50 [10]: 32.1 µM

Binder: EIYNMVKFRMIAGQE [Der p 4 peptide 3324.0978 (position 386)]
- IC50 [29]: 368 nM
- IC50 [30]: 11.2 µM
- IC50 [31]: 29.1 µM
- IC50 [32]: 26.6 µM
- IC50 [33]: 3.71 µM
